Measurements: paper PMC6241251

Target: human SK4 (small-conductance Ca2+-activated K+ channel), full-length (human) (UniProt O15554)
Experiment: cryo-EM structure

Chain of UniProt O15554 (O15554 whole entry): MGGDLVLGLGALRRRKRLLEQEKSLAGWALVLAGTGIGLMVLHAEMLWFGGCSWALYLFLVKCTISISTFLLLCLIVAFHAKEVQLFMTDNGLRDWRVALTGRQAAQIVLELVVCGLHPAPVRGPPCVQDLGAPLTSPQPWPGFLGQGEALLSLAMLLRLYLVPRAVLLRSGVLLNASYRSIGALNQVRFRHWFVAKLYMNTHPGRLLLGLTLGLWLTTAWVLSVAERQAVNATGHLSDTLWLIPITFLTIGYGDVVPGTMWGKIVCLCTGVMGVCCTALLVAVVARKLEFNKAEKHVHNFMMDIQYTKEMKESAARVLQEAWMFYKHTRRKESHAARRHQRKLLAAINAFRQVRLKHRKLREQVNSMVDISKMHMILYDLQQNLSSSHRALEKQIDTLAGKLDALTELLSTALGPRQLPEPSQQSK

stoichiometry N (CaMs per channel tetramer): 4
Substance: calmodulin (from UniProt P0DP23 1-149) (natural protein; other documents disagree on this pair)
